Measured values published in patent US20090069239.
Where “and” joins values, the source holds several entries; their conditions need not be identical. Equal values may be shown once.

Target: protamine

B1: iridoptin (37-kDa polypeptide expressed from the subgenic istk fragment of Chilo iridescent virus, 6xHis-tagged, Pichia-expressed) (protein)
chain: MDLKDEFIQIIKKYSELSLKESENETKKYIQEVFNVSLSEVFIKEPSKQETLKQEPTQETGCIYIFKKGKNIGQKCGSGKSKFCYKHKKNDLNIKVNQERNIKKPIPKPIPTNKIETGSVINQNWFIGTSIGKGGFGEIYSAAKFNDHGNYKDDDFSFAIKIEPKSGPLFVEMHFYKRVIVEKEIEKFKLQKNIQYLGLPKYYGSGLYNDYRYIVMEKYDSNIDKLFRNGDLNSSTILQIGIQILNIVEYIHSKGYIHADIKGENILLKENDTSHIYLVDFGLCSRYSNG
  SPECIFIC ACTIVITY (CPM/µg TOTAL PROTEIN), protein kinase assay (CPM/µg total protein): 1110 and 895
  SPECIFIC ACTIVITY (CPM/µg TOTAL PROTEIN), protein kinase assay, mean (CPM/µg total protein): 1000
